Patent publication US20250032576A1, “CNP Therapy” (BIOMARIN PHARMACEUTICAL INC., priority 2021, published 2025)
Numbering of substitutions follows the chain as printed. Several values for one entry are separate records, joined by “and”; a condition that tells them apart may be missing. Equal values may be shown once.

B1: Arg957Cys: NPR2 protein-altering variant, expression construct transfected into HEK293 cells (protein)
chain: RNLTLAVVLPEHNLSYAWAWPRVGPAVALAVEALGRALPVDLRFVSSELEGACSEYLAPLSAVDLKLYHDPDLLLGPGCVYPAASVARFASHWRLPLLTAGAVASGFSAKNDHYRTLVRTGPSAPKLGEFVVTLHGHFNWTARAALLYLDARTDDRPHYFTIEGVFEALQGSNLSVQHQVYAREPGGPEQATHFIRANGRIVYICGPLEMLHEILLQAQRENLTNGDYVFFYLDVFGESLRAGPTRATGRPWQDNRTREQAQALREAFQTVLVITYREPPNPEYQEFQNRLLIRAREDFGVELGPSLMNLIAGCFYDGILLYAEVLNETIQEGGTREDGLRIVEKMQGRRYHGVTGLVVMDKNNDRETDFVLWAMGDLDSGDFQPAAHYSGAEKQIWWTGRPIPWVKGAPPSDNPPCAFDLDDPSCDKTPLSTLAIVALGTGITFIMFGVSSFLIFRKLMLEKELASMLWRIRWEELQFGNSERYHKGAGSRLTLSLRGSSYGSLMTAHGKYQIFANTGHFKGNVVAIKHVNKKRIELTRQVLFELKHMRDVQFNHLTRFIGACIDPPNICIVTEYCPRGSLQDILENDSINLDWMFRYSLINDLVKGMAFLHNSIISSHGSLKSSNCVVDSRFVLKITDYGLASFRSTAEPDDSHALYAKKLWTAPELLSGNPLPTTGMQKADVYSFGIILQEIALRSGPFYLEGLDLSPKEIVQKVRNGQRPYFRPSIDRTQLNEELVLLMERCWAQDPAERPDFGQIKGFIRRFNKEGGTSILDNLLLRMEQYANNLEKLVEERTQAYLEEKRKAEALLYQILPHSVAEQLKRGETVQAEAFDSVTIYFSDIVGFTALSAESTPMQVVTLLNDLYTCFDAIIDNFDVYKVETIGDAYMVVSGLPGRNGQRHAPEIARMALALLDAVSSFRIRHRPHDQLRLCIGVHTGPVCAGVVGLKMPRYCLFGDTVNTASRMESNGQALKIHVSSTTKDALDELGCFQLELRGDVEMKGKGKMRTYWLLGERKGPPGLL
B2: Ala48Ser: NPR2 protein-altering variant, expression construct transfected into HEK293 cells (protein)
chain: B1 chain with A26S, C935R
B3: Thr297Met: NPR2 protein-altering variant, expression construct transfected into HEK293 cells (protein)
chain: B1 chain with T275M, C935R
B4: Val965Asp: NPR2 protein-altering variant, expression construct transfected into HEK293 cells (protein)
chain: B1 chain with C935R, V943D
B5: Lys480Asn: NPR2 protein-altering variant, expression construct transfected into HEK293 cells (protein)
chain: B1 chain with K458N, C935R
B6: Gly209Val: NPR2 protein-altering variant, expression construct transfected into HEK293 cells (protein)
chain: B1 chain with G187V, C935R
B7: Thr861Ile: NPR2 protein-altering variant, expression construct transfected into HEK293 cells (protein)
chain: B1 chain with T839I, C935R
B8: Arg601Ser: NPR2 protein-altering variant, expression construct transfected into HEK293 cells (protein)
chain: B1 chain with R579S, C935R
B9: HIS508Asp: NPR2 protein-altering variant, expression construct transfected into HEK293 cells (protein)
chain: B1 chain with H486D, C935R
B10: Arg562Gln: NPR2 protein-altering variant, expression construct transfected into HEK293 cells (protein)
chain: B1 chain with R540Q, C935R
B11: Val553Leu: NPR2 protein-altering variant, expression construct transfected into HEK293 cells (protein)
chain: B1 chain with V531L, C935R
B12: Leu956Gln: NPR2 protein-altering variant, expression construct transfected into HEK293 cells (protein)
chain: B1 chain with L934Q, C935R
B13: Pro301Ser: NPR2 protein-altering variant, expression construct transfected into HEK293 cells (protein)
chain: B1 chain with P279S, C935R
B14: Lys629Arg: NPR2 protein-altering variant, expression construct transfected into HEK293 cells (protein)
chain: B1 chain with K607R, C935R
B15: Ser522Pro: NPR2 protein-altering variant, expression construct transfected into HEK293 cells (protein)
chain: B1 chain with S500P, C935R
B16: Leu1009Val: NPR2 protein-altering variant, expression construct transfected into HEK293 cells (protein)
chain: B1 chain with C935R, L987V
B17: Gly917Arg: NPR2 protein-altering variant, expression construct transfected into HEK293 cells (protein)
chain: B1 chain with G895R, C935R
B18: Ile494Ser: NPR2 protein-altering variant, expression construct transfected into HEK293 cells (protein)
chain: B1 chain with I472S, C935R
B19: Glu727Gln: NPR2 protein-altering variant, expression construct transfected into HEK293 cells (protein)
chain: B1 chain with E705Q, C935R
B20: Trp42Arg: NPR2 protein-altering variant, expression construct transfected into HEK293 cells (protein)
chain: B1 chain with W20R, C935R
B21: Lys1006Thr: NPR2 protein-altering variant, expression construct transfected into HEK293 cells (protein)
chain: B1 chain with C935R, K984T
B22: Glu77Lys: NPR2 protein-altering variant, expression construct transfected into HEK293 cells (protein)
chain: B1 chain with E55K, C935R
B23: Glu389Asp: NPR2 protein-altering variant, expression construct transfected into HEK293 cells (protein)
chain: B1 chain with E367D, C935R

System: NPR2
Assay: cGMP catchpoint assay of NPR2 variants in transfected HEK293 cells treated with 20 nM CNP
Type: cell-based
Design: key to Lable: loss-of-function (LoF); Gain-of-function (GoF)
Conditions: cGMP normalized to RedLuciferase and to WT = 1; HEK293, 20 nM CNP, 0.4 nM IBMX; at least 3 repeat experiments with 4 replicates each
Protocol: Described herein is an in-vitro assay (cGMP) to assess the activities of >260 NPR2 variants. NPR2 protein-altering variants have been identified in the UK Biobank study and described in Estrada et al. (Nat Commun. 2021 12 (1): 2224). NPR2-expression constructs were transfected into HEK293 cells and 3 days later cells were treated with […] IBMX and 20 nM CNP in serum-free DMEM prior to measuring cGMP levels. The cGMP catchpoint ELISA competition assay (Molecular Devices) was used to measure cGMP according to manufacturer recommendations. RedLuc was used as a transfection control (FIG. 8A).
The NPR2 alpha-fold structure was obtained from a recent alpha-fold publication (Jumper et al., Nature 596:583-589 (2021)). A list of phenotypically characterized “high-confidence” variants was generated (Table 4). Phenotype is calculated by determining levels of cGMP using a standard curve. This value to normalized to RedLuciferase (transfection control). This value is further normalized by setting WT to 1. Average value is calculated from at least 3 repeat experiments with 4 replicates each.

Molecule | average phenotype
B1 | 0.01553 and 0.02954
B2 | 0.06785
B3 | 0.03025
B4 | 0.0158
B5 | 1.689
B6 | 0.08861
B7 | 0.07978 and 0.01124
B8 | 0.05949
B9 | 1.74
B10 | 1.554 and 1.629
B11 | 1.515
B12 | 0.02434
B13 | 0.08478
B14 | 1.493
B15 | 0.05673
B16 | 0.0847
B17 | 0.01708
B18 | 0.03638
B19 | 1.705
B20 | 0.0288
B21 | 0.0551
B22 | 0.04986
B23 | 0.07079

Same assay, conditions: high-confidence variant class

Molecule | Lable
B1 | LoF
B2 | LoF
B3 | LoF
B4 | LoF
B5 | GoF
B6 | LoF
B7 | LoF
B8 | LoF
B9 | GoF
B10 | GoF
B11 | GoF
B12 | LoF
B13 | LoF
B14 | GoF
B15 | LoF
B16 | LoF
B17 | LoF
B18 | LoF
B19 | GoF
B20 | LoF
B21 | LoF
B22 | LoF
B23 | LoF
